The target in assay [1] is T1, full-length TEN2 expressed on HEK293T cells (UniProt Q9NT68 1-2774).
T1 construct: teneurin-2 (TEN2), full length; Co-transfected with dsRed in the cell aggregation assay; also called FL TEN2; teneurin; source: HEK293T, transfected, on the cell surface
The assay can be described thus: flow cytometry on cells; biotinylated ADGRL3 Lec domain titrated on HEK293T cells expressing full-length TEN2, detected with DyLight 650 neutravidin. To be noted: one partner purified. On the technique in general: Flow cytometry measures light scatter and fluorescence of single cells or particles in a stream.

Assay [2] has as its target T2, Lec domain of ADGRL3 (human, UniProt Q9HAR2, biotin on the Avi-tag (BirA) in the flow cytometry experiments).
T2 construct: ADGRL3 (Latrophilin3), human, N-terminal Lectin (Lec) domain; also called ADGRL3Lec; lectin domain of ADGRL3; source: High Five insect cells (baculovirus), secreted, purified (Ni-NTA, SEC)
The assay is described as follows: flow cytometry on cells; competition: 5 µM ADGRL3 Lec domain pre-bound to TEN2 on HEK293T cells, increasing concentrations of LK30; row of LK30 with the Lec domain. Particulars: both partners purified.

In assay [3] the target is T3, full-length ADGRL3 expressed on HEK293T cells (human, UniProt Q9HAR2). The assay is described as follows: cell-based or functional assay.
For assay [4], the target named is T4, full-length ADGRL1 expressed on HEK293T cells (Rattus norvegicus (assumed for …, UniProt O88917)).
T4 construct: ADGRL1 (Latrophilin1), full length; also called Latrophilin1; source: HEK293T, transfected, on the cell surface; not shown: FLAG, N-terminal, kept
The assay can be described thus: flow cytometry on cells; HEK293T cells expressing full-length receptor, increasing concentrations of LK30, 30 min at 4 °C, detected with Alexa Fluor 647 anti-human F(ab')2; apparent affinity from MFI. Particulars: one partner purified.

The target of assay [5] is T3, full-length ADGRL3 expressed on HEK293T …. The assay is described as above. To be noted: one partner purified.
Assay [6] deals with T2, Lec domain of ADGRL3. The assay can be described thus: SPR; targets immobilised via His-tag on NTA sensor chip, sAB injected in 2-fold serial dilutions (25, 12.5, 6.25, 3.125 nM), RT, MASS-1 instrument, one-to-one Langmuir fit. Particulars: both partners purified. Background: Surface plasmon resonance follows binding to a sensor surface in real time, without labels.
In the next assay the target is T5, Lec domain of ADGRL1 (Rattus norvegicus, UniProt O88917).
T5 construct: ADGRL1 (Latrophilin1), rat, Lectin (Lec) domain; In the ELISA the target was held on a neutravidin plate, so it was probably biotinylated; also called Lec domain from ADGRL1; ADGRL1 lectin domain; source: baculovirus method (all proteins); not further stated for this fragment
The assay is described as above. Particulars: both partners purified.

What is called IC50 is the concentration at which inhibition is half-maximal.

T3 sequence (Q9HAR2 20-1447): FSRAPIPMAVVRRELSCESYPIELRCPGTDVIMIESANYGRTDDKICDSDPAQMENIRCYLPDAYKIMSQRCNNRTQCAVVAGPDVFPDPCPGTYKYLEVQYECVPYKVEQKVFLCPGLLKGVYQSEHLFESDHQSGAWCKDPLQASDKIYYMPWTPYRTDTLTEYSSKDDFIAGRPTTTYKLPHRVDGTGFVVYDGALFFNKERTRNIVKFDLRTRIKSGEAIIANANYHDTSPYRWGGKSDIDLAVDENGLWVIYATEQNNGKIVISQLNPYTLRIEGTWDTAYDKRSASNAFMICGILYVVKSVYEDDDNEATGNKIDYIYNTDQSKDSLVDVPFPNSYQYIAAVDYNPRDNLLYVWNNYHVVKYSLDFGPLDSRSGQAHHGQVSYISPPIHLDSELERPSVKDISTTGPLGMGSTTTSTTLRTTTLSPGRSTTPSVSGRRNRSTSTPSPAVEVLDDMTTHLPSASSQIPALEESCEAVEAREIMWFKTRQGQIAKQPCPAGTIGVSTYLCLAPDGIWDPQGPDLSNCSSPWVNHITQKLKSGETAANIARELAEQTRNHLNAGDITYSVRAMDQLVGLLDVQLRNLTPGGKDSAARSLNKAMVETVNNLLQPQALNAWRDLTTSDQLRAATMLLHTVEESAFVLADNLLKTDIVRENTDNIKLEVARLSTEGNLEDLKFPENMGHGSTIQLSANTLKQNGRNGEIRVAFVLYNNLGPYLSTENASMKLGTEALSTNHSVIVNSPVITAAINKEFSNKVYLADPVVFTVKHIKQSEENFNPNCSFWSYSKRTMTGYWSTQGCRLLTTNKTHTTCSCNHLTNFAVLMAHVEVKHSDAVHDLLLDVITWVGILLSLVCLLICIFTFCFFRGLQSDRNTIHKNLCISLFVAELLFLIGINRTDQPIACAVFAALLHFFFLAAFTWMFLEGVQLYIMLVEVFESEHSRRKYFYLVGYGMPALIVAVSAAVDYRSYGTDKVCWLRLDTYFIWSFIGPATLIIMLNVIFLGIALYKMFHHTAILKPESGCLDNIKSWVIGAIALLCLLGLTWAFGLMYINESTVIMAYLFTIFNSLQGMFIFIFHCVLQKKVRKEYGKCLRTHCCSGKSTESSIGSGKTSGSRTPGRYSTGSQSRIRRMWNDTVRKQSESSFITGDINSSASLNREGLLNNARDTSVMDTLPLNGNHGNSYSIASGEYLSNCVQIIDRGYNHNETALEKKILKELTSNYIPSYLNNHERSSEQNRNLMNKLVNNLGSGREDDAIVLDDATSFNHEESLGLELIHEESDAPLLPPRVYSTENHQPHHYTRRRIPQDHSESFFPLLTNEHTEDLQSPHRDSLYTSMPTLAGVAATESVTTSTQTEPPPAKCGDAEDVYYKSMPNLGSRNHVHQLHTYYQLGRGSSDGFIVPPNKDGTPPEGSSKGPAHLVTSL
T1 sequence (Q9NT68 whole entry): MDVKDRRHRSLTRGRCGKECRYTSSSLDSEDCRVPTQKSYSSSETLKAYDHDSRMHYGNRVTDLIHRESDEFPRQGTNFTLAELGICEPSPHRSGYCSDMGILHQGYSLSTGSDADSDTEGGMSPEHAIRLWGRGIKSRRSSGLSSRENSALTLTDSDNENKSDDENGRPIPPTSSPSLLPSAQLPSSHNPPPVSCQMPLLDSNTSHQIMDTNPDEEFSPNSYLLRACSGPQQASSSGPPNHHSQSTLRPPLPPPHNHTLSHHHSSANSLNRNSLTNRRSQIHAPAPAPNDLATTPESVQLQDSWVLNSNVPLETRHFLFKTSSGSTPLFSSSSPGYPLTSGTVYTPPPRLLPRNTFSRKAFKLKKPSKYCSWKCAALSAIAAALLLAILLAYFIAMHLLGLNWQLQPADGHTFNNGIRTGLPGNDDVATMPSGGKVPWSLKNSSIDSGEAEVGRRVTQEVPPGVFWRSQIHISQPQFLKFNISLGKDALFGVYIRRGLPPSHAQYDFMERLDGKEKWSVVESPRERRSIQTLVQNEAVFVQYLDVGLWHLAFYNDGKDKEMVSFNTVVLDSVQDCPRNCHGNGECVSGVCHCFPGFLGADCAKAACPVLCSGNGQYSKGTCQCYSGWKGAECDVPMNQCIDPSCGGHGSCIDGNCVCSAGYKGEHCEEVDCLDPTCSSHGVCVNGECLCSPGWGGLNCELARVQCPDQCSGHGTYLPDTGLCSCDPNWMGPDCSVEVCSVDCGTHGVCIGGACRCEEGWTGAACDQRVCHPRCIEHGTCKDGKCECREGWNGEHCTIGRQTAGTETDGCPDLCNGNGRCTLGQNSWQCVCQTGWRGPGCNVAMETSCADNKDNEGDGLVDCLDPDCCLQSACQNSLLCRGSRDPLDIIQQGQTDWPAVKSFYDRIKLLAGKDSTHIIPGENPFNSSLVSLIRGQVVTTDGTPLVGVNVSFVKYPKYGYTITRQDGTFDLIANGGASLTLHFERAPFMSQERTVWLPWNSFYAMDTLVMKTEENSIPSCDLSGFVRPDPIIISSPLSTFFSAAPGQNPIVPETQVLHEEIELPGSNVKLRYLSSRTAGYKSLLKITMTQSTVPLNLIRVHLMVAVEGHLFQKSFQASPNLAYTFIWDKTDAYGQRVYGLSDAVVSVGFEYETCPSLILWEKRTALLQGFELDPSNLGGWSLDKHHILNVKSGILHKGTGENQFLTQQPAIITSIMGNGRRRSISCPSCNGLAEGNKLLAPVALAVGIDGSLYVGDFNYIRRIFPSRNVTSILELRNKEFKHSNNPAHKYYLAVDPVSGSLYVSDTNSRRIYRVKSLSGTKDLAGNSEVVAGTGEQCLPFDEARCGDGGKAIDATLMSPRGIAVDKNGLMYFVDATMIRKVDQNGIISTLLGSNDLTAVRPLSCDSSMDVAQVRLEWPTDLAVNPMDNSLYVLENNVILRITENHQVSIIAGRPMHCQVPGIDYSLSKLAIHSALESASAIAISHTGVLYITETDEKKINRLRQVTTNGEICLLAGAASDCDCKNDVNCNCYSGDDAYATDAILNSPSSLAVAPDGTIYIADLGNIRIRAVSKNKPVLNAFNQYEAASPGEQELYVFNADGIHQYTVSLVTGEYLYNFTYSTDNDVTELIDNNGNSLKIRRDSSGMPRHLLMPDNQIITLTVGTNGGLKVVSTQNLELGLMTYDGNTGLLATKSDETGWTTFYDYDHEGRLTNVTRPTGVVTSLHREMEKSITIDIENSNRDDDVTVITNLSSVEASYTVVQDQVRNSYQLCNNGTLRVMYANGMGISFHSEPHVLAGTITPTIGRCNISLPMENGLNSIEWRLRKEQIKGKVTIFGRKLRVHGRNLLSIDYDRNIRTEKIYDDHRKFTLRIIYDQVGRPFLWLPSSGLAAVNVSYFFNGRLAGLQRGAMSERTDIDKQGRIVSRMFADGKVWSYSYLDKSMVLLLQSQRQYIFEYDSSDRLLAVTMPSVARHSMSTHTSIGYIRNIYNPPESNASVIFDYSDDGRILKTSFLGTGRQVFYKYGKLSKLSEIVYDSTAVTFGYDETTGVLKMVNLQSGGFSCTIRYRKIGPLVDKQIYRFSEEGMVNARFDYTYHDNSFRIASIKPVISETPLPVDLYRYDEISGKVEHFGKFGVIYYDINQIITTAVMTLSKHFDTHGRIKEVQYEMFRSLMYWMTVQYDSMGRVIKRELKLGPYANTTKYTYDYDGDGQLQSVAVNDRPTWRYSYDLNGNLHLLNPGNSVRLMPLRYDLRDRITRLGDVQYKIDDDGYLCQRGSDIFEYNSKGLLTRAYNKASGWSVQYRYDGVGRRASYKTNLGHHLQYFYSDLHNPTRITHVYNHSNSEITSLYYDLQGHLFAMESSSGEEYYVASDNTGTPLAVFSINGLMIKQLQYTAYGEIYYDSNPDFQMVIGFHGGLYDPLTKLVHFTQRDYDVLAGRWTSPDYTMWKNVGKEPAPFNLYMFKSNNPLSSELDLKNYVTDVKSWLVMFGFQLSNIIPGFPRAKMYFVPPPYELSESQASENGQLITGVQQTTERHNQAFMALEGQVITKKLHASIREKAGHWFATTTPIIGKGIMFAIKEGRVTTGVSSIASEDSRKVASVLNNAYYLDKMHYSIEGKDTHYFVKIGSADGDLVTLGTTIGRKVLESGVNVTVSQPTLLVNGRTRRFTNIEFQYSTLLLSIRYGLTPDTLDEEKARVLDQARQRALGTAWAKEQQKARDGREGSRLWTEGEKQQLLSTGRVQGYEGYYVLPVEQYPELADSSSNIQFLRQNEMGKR

B1: Lec domain of ADGRL3 (domain or fragment, human)
chain: PIPMAVVRRELSCESYPIELRCPGTDVIMIESANYGRTDDKICDSDPAQMENIRCYLPDAYKIMSQRCNNRTQCAVVAGPDVFPDPCPGTYKYLEVQYECVPY
modifications: biotin on the Avi-tag (BirA) in the flow cytometry experiments
notes: ADGRL3 (Latrophilin3), human, N-terminal Lectin (Lec) domain; also called ADGRL3Lec; lectin domain of ADGRL3; source: High Five insect cells (baculovirus), secreted, purified (Ni-NTA, SEC)
For the molecule B1, the Kd in assay [1] was determined as 129 nM.

B2: synthetic antibody fragment (sAB) LK30 (Fab, V domains shown)
VH: EVQLVESGGGLVQPGGSLRLSCAASGFNIYYSSIHWVRQAPGKGLEWVAYISPYSGSTSYADSVKGRFTISADTSKNTAYLQMNSLRAEDTAVYYCARYKYGQGHMGAFDYWGQGTLVTVSS
VL: DIQMTQSPSSLSASVGDRVTITCRASQSVSSAVAWYQQKPGKAPKLLIYSASSLYSGVPSRFSGSRSGTDFTLTISSLQPEDFATYYCQQSNTELVTFGQGTKVEIK
notes: heavy chain (HC) of LK30 in the deposited structure PDB 8DJG; selected from synthetic phage library E on a humanized antibody Fab scaffold; light chain (LC) of LK30 in the deposited structure PDB 8DJG; Fab format (sAB) expressed from vector pRH2.2; source: E. coli BL21 (Gold), purified (protein L, Resource S ion exchange)
In the assay with Lec domain of ADGRL3 [2], B2 showed an IC50 of 193 nM. Further, in assay [3], the “SRE-luciferase assay in HEK293T cells transfected with ADGRL3, 1 µM LK30: fold increase over basal activity” value was ~2.5 fold. Further, in assay [3], the “SRE-luciferase assay in HEK293T cells transfected with ADGRL3, titration of LK30: EC50” value came out at 42 nM. Moreover, the Kd in assay [4] was found to be 147 nM; in assay [5] it was 131 nM; in the assay with Lec domain of ADGRL3 [6], 7 nM; with Lec domain of ADGRL1, 11 nM.
